The sequences below were run against Fes (UniProt P07332) (assay: phosphorylation enrichment, bacterial display (enrichment ratio); higher = better substrate or ligand; peptides without Tyr show the background).
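Further: 11-residue human phosphosite peptides and single-mutation variants displayed on the E. coli surface, counted by deep sequencing, each peptide's frequency after selection divided by its frequency in the unselected input library; frequency after pTyr selection over input frequency; kinase dosed for 20-30% of maximal phosphorylation in three min.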

Sequence of Fes (P07332 whole entry, looked up): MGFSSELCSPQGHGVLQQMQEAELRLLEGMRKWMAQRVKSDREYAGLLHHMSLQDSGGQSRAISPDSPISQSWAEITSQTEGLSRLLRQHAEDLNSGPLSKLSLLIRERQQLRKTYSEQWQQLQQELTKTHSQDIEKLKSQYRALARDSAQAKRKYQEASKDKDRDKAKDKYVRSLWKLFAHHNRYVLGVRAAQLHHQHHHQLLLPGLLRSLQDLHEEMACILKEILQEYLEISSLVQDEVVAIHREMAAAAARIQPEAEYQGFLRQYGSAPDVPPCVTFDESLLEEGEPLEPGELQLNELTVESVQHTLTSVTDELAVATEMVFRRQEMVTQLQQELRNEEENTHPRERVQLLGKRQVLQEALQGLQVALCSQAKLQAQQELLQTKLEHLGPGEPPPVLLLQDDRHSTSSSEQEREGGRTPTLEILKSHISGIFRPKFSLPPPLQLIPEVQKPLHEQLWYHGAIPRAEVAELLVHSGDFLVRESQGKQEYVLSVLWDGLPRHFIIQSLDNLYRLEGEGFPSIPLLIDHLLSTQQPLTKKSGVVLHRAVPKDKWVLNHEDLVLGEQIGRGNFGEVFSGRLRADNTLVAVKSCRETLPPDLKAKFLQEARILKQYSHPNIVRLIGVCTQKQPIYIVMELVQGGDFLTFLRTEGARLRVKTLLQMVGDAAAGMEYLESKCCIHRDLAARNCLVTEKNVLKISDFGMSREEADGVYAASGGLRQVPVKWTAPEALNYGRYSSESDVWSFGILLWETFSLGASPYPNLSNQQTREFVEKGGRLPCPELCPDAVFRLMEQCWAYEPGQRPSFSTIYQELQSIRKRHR

| Sequence | phosphorylation enrichment |
| --- | --- |
| PGQRVYVVAES [SHH_Y316_R321S] | 1.45 |
| PVDVAYRHGFF [PLEC_Y2967_R2969H_YF] | 0.85 |
| IGEGTYRTVFK [CDK5_Y15_G16R] | 0.738 |
| RNVFFYSFLLK [PTEN_Y178_Y174N_YF] | 1.72 |
| SLQFEYVHFGG [CDC14A_Y591_S589F_YF] | 1.29 |
| ILIFHYAKGQP [MPZ_Y82_S78L] | 1.37 |
| HISGVYKLPPD [ANGPTL7_Y145_R140H] | 1.33 |
| KGRAGYTTVAV [RET_Y752] | 0.519 |
| ATARPYRPYII [LRP5_Y1528] | 0.793 |
| PSGPAYRGAVP [ASAH1_Y43_T42A] | 0.759 |
| ARGMEYLASKK [FGFR1_Y613] | 0.566 |
| RKETFYILSCR [GUCY2C_Y681_T682I] | 1.59 |
| RLRKYHLGKYL [KLB_Y906_Y906H] | 0.498 |
| FLTQHYDAEPQ [ANG_Y38_K41E] | 0.989 |
| TEQDPYNNIVH [MMUT_Y364_R369H] | 0.965 |
| YSGDCYRIQGR [DDR2_Y741_Y740C] | 0.83 |
| LKEIRYPPFTD [ALDH3B2_Y362_H361R_YF] | 2.01 |

| Sequence | phosphorylation enrichment |
| --- | --- |
| DQIDTYELSGG [DNM1_Y354] | 1.12 |
| NHFKIYNLCAE [PTEN_Y68_YF] | 0.766 |
| WQQQSYLDYGI [CTNNB1_Y30_S33Y] | 1.03 |
| GLSAPYVKIHL [SYT2_Y309_D307A] | 0.785 |
| KIVQDYLEKFY [MMP8_Y36_T32I] | 0.975 |
| GVRLFYRVRES [RB1_Y454_M457R_YF] | 1.16 |
| KVGRVYLFLQP [ITGA2B_Y360_E355K] | 1.2 |
| NRVEIYEKTVE [CYFIP1_Y108] | 1.18 |
| VPLLEYFRDIF [CDAN1_Y712_YF] | 1.6 |
| DDHFTYSRYPW [LY75_Y888] | 1.13 |
| LVSCTYQLARG [FGFR2_Y608] | 1.08 |
| IHFAIYLLKFS [ARMC9_Y107_YF] | 1.06 |
| PPSLSYLSFEG [EXOSC3_Y143_A139P] | 0.886 |
| LNARHYGGLTG [PGAM2_Y92_E89A] | 0.573 |
| KVNKIYHPDFI [LIG3_Y767_Y768H] | 0.627 |
| QSPQLYKQMCI [DARS1_Y253] | 0.896 |

Each sequence was assayed against Fyn (UniProt P06241) in the same assay as above.
Sequence of Fyn (P06241 whole entry, looked up): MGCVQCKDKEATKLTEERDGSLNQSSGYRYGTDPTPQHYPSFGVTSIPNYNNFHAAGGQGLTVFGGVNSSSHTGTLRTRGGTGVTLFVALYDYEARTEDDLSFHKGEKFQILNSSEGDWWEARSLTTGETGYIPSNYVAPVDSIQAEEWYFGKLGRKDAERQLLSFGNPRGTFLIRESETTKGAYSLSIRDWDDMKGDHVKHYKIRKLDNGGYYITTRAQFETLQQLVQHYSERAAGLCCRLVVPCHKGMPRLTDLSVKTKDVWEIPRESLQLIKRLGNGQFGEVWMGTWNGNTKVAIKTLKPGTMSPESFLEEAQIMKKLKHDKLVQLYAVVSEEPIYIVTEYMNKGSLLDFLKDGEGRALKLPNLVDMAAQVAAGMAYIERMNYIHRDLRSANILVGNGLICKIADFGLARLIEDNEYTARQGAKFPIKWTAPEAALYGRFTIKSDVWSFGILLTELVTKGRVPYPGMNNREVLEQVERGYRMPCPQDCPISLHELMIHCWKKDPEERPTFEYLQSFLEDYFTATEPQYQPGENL

| Sequence | phosphorylation enrichment |
| --- | --- |
| PGQRVYVVAES [SHH_Y316_R321S] | 0.538 |
| PVDVAYRHGFF [PLEC_Y2967_R2969H_YF] | 0.324 |
| IGEGTYRTVFK [CDK5_Y15_G16R] | 0.459 |
| RNVFFYSFLLK [PTEN_Y178_Y174N_YF] | 0.656 |
| SLQFEYVHFGG [CDC14A_Y591_S589F_YF] | 0.548 |
| ILIFHYAKGQP [MPZ_Y82_S78L] | 0.504 |
| HISGVYKLPPD [ANGPTL7_Y145_R140H] | 3.26 |
| KGRAGYTTVAV [RET_Y752] | 0.319 |
| ATARPYRPYII [LRP5_Y1528] | 0.55 |
| PSGPAYRGAVP [ASAH1_Y43_T42A] | 0.539 |
| ARGMEYLASKK [FGFR1_Y613] | 0.364 |
| RKETFYILSCR [GUCY2C_Y681_T682I] | 0.373 |
| RLRKYHLGKYL [KLB_Y906_Y906H] | 0.318 |
| FLTQHYDAEPQ [ANG_Y38_K41E] | 0.478 |
| TEQDPYNNIVH [MMUT_Y364_R369H] | 0.572 |
| YSGDCYRIQGR [DDR2_Y741_Y740C] | 0.475 |
| LKEIRYPPFTD [ALDH3B2_Y362_H361R_YF] | 0.926 |

| Sequence | phosphorylation enrichment |
| --- | --- |
| DQIDTYELSGG [DNM1_Y354] | 1.29 |
| NHFKIYNLCAE [PTEN_Y68_YF] | 2.61 |
| WQQQSYLDYGI [CTNNB1_Y30_S33Y] | 0.604 |
| GLSAPYVKIHL [SYT2_Y309_D307A] | 0.337 |
| KIVQDYLEKFY [MMP8_Y36_T32I] | 0.452 |
| GVRLFYRVRES [RB1_Y454_M457R_YF] | 0.417 |
| KVGRVYLFLQP [ITGA2B_Y360_E355K] | 0.375 |
| NRVEIYEKTVE [CYFIP1_Y108] | 0.511 |
| VPLLEYFRDIF [CDAN1_Y712_YF] | 0.543 |
| DDHFTYSRYPW [LY75_Y888] | 4.82 |
| LVSCTYQLARG [FGFR2_Y608] | 0.579 |
| IHFAIYLLKFS [ARMC9_Y107_YF] | 0.458 |
| PPSLSYLSFEG [EXOSC3_Y143_A139P] | 0.464 |
| LNARHYGGLTG [PGAM2_Y92_E89A] | 0.301 |
| KVNKIYHPDFI [LIG3_Y767_Y768H] | 0.417 |
| QSPQLYKQMCI [DARS1_Y253] | 0.796 |

Reference: the supplement of paper PMC10065799, “High-throughput profiling of sequence recognition by tyrosine kinases and SH2 domains using bacterial peptide display” (eLife, 2023)
